Assay results published in patent publication US20240132593A1 (KINETA, published 2024).
“And” between values parts separate entries of the source, which are not always exact repeats. Equal entries are not always repeated.

Key:
rhFcRn (R&D) [1] = target: T1, rhFcRn (R&D) (human (printed as rhFcRn), UniProt P55899 24-297; P61769 21-119); assay: BLI Octet K2, antibody on FAB2G sensor, rhFcRn analyte (row of 50 nM), pH 6.0, 1:1 global fit
T1 construct: Bought reagent; also called neonatal Fc receptor; FcRn ligand
Procedure: (§1) Loaded biosensors were dipped (Association Step) into serial diluted FcRn (R&D systems) at 800, 200, 50 and 0 nanomolar concentrations for 240 seconds. Associated biosensors were dipped into phosphate assay buffer (PAB; 100 mM Sodium Phosphate, 150 mM NaCl, 0.05% Tween-20; pH 6.0) solution for 360 seconds (Dissociation Step). All steps including baseline, association and dissociation were performed in PAB at a pH of 6.0 to replicate the intracellular biology of the FcRn-Fc activity. A 1:1 Global curve fitting analysis was performed to determine kₐ, kdis, and KD across all concentrations of the FcRn analyte. The biphasic curve of dissociation was analyzed for the first 10 seconds only. Data analysis was performed using Octet Data Analysis software version 12.0.2.59. A Savitzky-Golay digital filter was used to remove high-frequency noise.

rhFcRn (R&D) [2] = target: T1, rhFcRn (R&D); assay: BLI Octet K2, antibody on FAB2G sensor, rhFcRn analyte (row of 200 nM), pH 6.0, 1:1 global fit
Procedure: as §1

rhFcRn (R&D) [3] = target: T1, rhFcRn (R&D); assay: BLI Octet K2, antibody on FAB2G sensor, rhFcRn analyte (row of 800 nM), pH 6.0, 1:1 global fit
Procedure: as §1

[4] = target: T2, His-tagged recombinant human VISTA-ECD (Met 1 to Ala 194) (human, UniProt Q9H7M9 33-194); assay: BLI Octet, reversed format (avidity): hu VISTA-ECD-His on HIS1K sensor, mAb 133.3 nM
T2 construct: also called hu.VISTA; VISTA-His; not shown: His tag

[5] = target: T2, His-tagged recombinant human VISTA-ECD …; assay: ELISA, His-tagged human VISTA ECD on plate, mAb titrated
Procedure: (§2) Nickel-coated 96-well ELISA plates (Thermo Scientific) or Maxisorb 96-well polystyrene ELISA plates were coated overnight at 4° C. with 50 μL of a 0.5-1 μg/mL solution of His-tagged VISTA protein (SinoBiological, Met1-Ala194 produced in HE293 cells) in 0.1M NaHCO₃ pH 9.6. All subsequent incubations were performed at room temperature. Wells were washed 3 times with PBST (0.05% Tween 20) and blocked for 2 h with 200 μL 5% BSA in PBST. […] Each antibody dilution was incubated at 50-100 μL/well in the ELISA plate for 1 h, after which plates were washed 3 times with PBST and incubated with a 1:20,000 dilution of Biotin SP AffiniPure Donkey Anti-Human IgG (H+L) polyclonal antibody (Jackson ImmunoResearch, 50-100 μL/well) for 1 h. Wells were washed 3 times with PBST, and the plates were incubated with 50-100 μL of a 1:200 dilution of Streptavidin-HRP (R&D Systems) for 30 min. Wells were washed 3 times with PBST and developed with 100 μL 1-Step Ultra Fast TMB Substrate (Thermo Scientific) for 2 minutes. The reaction was stopped with 100 μL 2N H₂SO₄, and plate well absorbance was measured at 450 nm (Biotek ELx808).
For human VISTA binding data, EC₅₀ values were calculated from nonlinear regression of log-transformed dose-response data.

[6] = target: T3, His-tagged recombinant cynomolgus monkey VISTA-ECD (Met 1 to Ala 194) (cynomolgus monkey, UniProt Q9H7M9 33-194 (human entry)); assay: BLI Octet, mAb on AHC sensor, cyno VISTA-ECD-His 300 nM
T3 construct: also called cyno VISTA; Cyno VISTA
T3 chain: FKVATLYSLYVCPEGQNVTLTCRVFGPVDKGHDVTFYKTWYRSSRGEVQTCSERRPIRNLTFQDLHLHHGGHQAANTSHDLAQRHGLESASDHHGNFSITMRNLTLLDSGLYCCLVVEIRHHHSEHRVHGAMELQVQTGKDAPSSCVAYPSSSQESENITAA
Procedure: (§3) Octet scouting: Antibody affinities were measured using biolayer interferometry (BLI) on the Octet Red 96 (ForteBio) system. Anti-human IgG Fc Capture (AHC) dip and read sensors (ForteBio) were used to capture each anti-VISTA antibody formatted as either an IgG1 or IgG4 and diluted to 20 μg/mL in PBS pH 7.4. AHC sensors were dipped into antibody solution for 180 s to capture each IgG on the sensor. An initial baseline was established by soaking each sensor in PBS pH 7.4 for an additional 120 s. […] Human, cynomolgus monkey, and mouse VISTA-ECD were evaluated. Studies were performed by association with VISTA-ECD for 240 s and dissociation in PBS pH 7.4 for 360 s. Data analysis was performed using Octet Data Analysis software version 9.0.0.14. In general, baseline alignment without subtraction was used for raw data processing. A Savitzky-Golay digital filter was used to remove high-frequency noise, and processed data were globally fit to a 1:1 binding model. Where binding was present, the affinity constant (KD) was calculated for each antibody-antigen pair.

[7] = target: T4, His-tagged recombinant mouse VISTA-ECD (Met 1 to Ala 194) (mouse, UniProt Q9D659 33-194); assay: ELISA endpoint, His-VISTA on plate, mAb at 23 µg/mL
T4 construct: Bought (Sino Biological); not shown: His tag
T4 sequence: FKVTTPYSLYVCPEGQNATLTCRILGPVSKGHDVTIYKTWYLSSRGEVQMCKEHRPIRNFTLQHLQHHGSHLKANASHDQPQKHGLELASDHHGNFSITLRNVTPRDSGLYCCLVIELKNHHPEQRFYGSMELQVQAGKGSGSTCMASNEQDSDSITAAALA

[8] = target: T5, his-tagged human VISTA-ECD (human, UniProt Q9H7M9 33-194); assay: BLI sandwich binning; VISTA-ECD-His held by capture Ab VSTB-174 (competitor)
T5 construct: also called hu.VISTA; VISTA protein (Human recombinant, produced in HEK 293 cells, SinoBiologics); not shown: His tag

RFQ-VISTA-ECD-Fc = target: T6, RFQ-VISTA-ECD-Fc (human); assay: ELISA, 10 ug/mL antibody on plate-bound mutant VISTA-Fc
T6 construct: also called hVISTA ECD-Fc R54A, F62A, Q63A; human VISTA-Fc 54A62A63A
Procedure: (§4) ELISA was used to measure antibody binding to wild-type and mutant VISTA essentially as described above. VISTA-Fc (5 μg/mL) was immobilized on Maxisorb 96-well ELISA plates and reacted with each antibody diluted to 10 μg/mL in a standard ELISA format. Binding data were reported as absorbance at 450 nm.

[9] = target: T5, his-tagged human VISTA-ECD; assay: BLI sandwich binning; VISTA-ECD-His held by capture Ab 269.1 (competitor)
Procedure: (§5) Octet binning studies: Epitope mapping was performed by BLI on the Octet system. AHC sensors were used to capture anti-VISTA antibody (20 μg/mL) over 100 s. Unbound sites on the sensor were blocked with a saturating amount (50 μg/mL) of pooled purified human IgG for 180 s. Antigen (his-tagged human VISTA-ECD at 100 nM) was bound to immobilized antibody for 180 s, after which the sensor was interrogated for the ability of a paired antibody to bind the antigen in the sandwiched format. Multiple pairing arrangements were interrogated such that each antibody was used as the capture antibody in the format at least one time. Data are represented as response (nm) for the secondary antibody.

[10] = target: T5, his-tagged human VISTA-ECD; assay: BLI sandwich binning; VISTA-ECD-His held by capture Ab 321.1 (competitor)
Procedure: as §5

[11] = target: T5, his-tagged human VISTA-ECD; assay: BLI sandwich binning; VISTA-ECD-His held by capture Ab 173.1 (competitor)
Procedure: as §5

[12] = target: T5, his-tagged human VISTA-ECD; assay: BLI sandwich binning; VISTA-ECD-His held by capture Ab 457.1 (competitor)
Procedure: as §5

[13] = target: T5, his-tagged human VISTA-ECD; assay: BLI sandwich binning; VISTA-ECD-His held by capture Ab 245.1 (competitor)
Procedure: as §5

[14] = target: T5, his-tagged human VISTA-ECD; assay: BLI sandwich binning; VISTA-ECD-His held by capture Ab 465.1 (competitor)
Procedure: as §5

[15] = target: T7, hVISTA ECD-Fc R54A, F62A, Q63A (human); assay: ELISA on immobilized VISTA-Fc (5 µg/mL), antibody at 10 µg/mL
T7 construct: also called human VISTA-Fc 54A62A63A; triple VISTA-Fc mutant
Procedure: as §4

[16] = target: T2, His-tagged recombinant human VISTA-ECD …; assay: BLI Octet, mAb on AHC sensor, hu VISTA-ECD-His 50 nM
Procedure: as §3

[17] = target: T2, His-tagged recombinant human VISTA-ECD …; assay: ELISA endpoint, His-VISTA on plate, mAb at 2 µg/mL
Procedure: as §2

[18] = target: T3, His-tagged recombinant cynomolgus …; assay: ELISA endpoint, His-VISTA on plate, mAb at 2 µg/mL
Procedure: as §2

[19] = target: T8, His-tagged recombinant mouse VISTA-ECD (Met 1 to Ala 194) (Sino Biological) (mouse, UniProt Q9D659 33-194); assay: BLI (Octet Red 96), antibody on AHC sensor
T8 construct: not shown: His tag
T8 sequence: T4 sequence

B1: Antibody No. 150.1 (antibody, human IgG1, kappa)
heavy: QVQLQESGPGLVKPSETLSLTCTVSGGSISSYYWSWIRQPPGKGLEWIGYIYYSGSTNYNPSLKSRVTISVDTSKSQFSLKLSSVTAADTAVYYCARDIPAFAFDIWGQGTMVIVSSASTKGPSVFPLAPSSKSTSGGTAALGCLVKDYFPEPVTVSWNSGALTSGVHTFPAVLQSSGLYSLSSVVTVPSSSLGTQTYICNVNHKPSNTKVDKKVEPKSCDKTHTCPPCPAPELLGGPSVFLFPPKPKDTLYITREPEVTCVVVDVSHEDPEVKFNWYVDGVEVHNAKTKPREEQYNSTYRVVSVLTVLHQDWLNGKEYKCKVSNKALPAPIEKTISKAKGQPREPQVYTLPPSRDELTKNQVSLTCLVKGFYPSDIAVEWESNGQPENNYKTTPPVLDSDGSFFLYSKLTVDKSRWQQGNVFSCSVMHEALHNHYTQKSLSLSPGK
light: not shown
notes: Human IgG1 with the YTE mutations (M252Y, S254T, T256E, EU numbering), kappa light chain; It is left out here; copies: 2 + 2
Kd (rhFcRn (R&D) [1]): 84.1 nM | koff (rhFcRn (R&D) [1]): 0.0192 s⁻¹ | kon (rhFcRn (R&D) [1]): 228000 M⁻¹ s⁻¹ | Kd (rhFcRn (R&D) [2]): 84.1 nM | koff (rhFcRn (R&D) [2]): 0.0192 s⁻¹ | kon (rhFcRn (R&D) [2]): 228000 M⁻¹ s⁻¹ | Kd (rhFcRn (R&D) [3]): 84.1 nM | koff (rhFcRn (R&D) [3]): 0.0192 s⁻¹ | kon (rhFcRn (R&D) [3]): 228000 M⁻¹ s⁻¹

B2: Antibody No. 269.1 (antibody, human IgG1, kappa)
heavy: not shown
light: EIVLTQSPDFQSVTPKEKVTITCRASQSIGSSLHWYQQKPDQSPKLLIKYASQSISGVPSRFSGSGSGTDFTLTINSLEAEDAAAYYCHQSSSLPQTFGQGTKVEIKRTVAAPSVFIFPPSDEQLKSGTASVVCLLNNFYPREAKVQWKVDNALQSGNSQESVTEQDSKDSTYSLSSTLTLSKADYEKHKVYACEVTHQGLSSPVTKSFNRGEC
notes: Human IgG1, kappa
Kd [4]: < 0.001 nM | EC50 [5]: 0.475 µg/mL | Response [6]: 0.434 | endpoint absorbance (450 nm) [7]: 0.079

B3: Antibody No. 269.1 (antibody, human IgG1, kappa)
heavy: not shown
light: B2 light
notes: human IgG1
BLI response of secondary antibody [8]: 0.0261 nm | ELISA Abs 450 nm (RFQ-VISTA-ECD-Fc): 1.65 Abs 450 nm | BLI response of secondary antibody [9]: 0.066 nm | BLI response of secondary antibody [10]: 0.0542 nm | BLI response of secondary antibody [11]: 0.0651 nm | BLI response of secondary antibody [12]: 0.0507 nm | BLI response of secondary antibody [13]: 0.0319 nm | BLI response of secondary antibody [14]: 0.0505 nm

B4: Antibody No. 269.1 (antibody, human IgG1, kappa)
light: B2 light
heavy: not shown
binding result [15]: binds

B5: Antibody No. 833.1 (antibody, human IgG1, kappa)
heavy: not shown
light: B2 light
notes: Human IgG1, kappa; also called Ab No. 833.1
Response [16]: 0.334 | EC50 [5]: 0.074 µg/mL and 0.5 nM | endpoint absorbance (450 nm) [17]: 2.02 | endpoint absorbance (450 nm) [18]: 1.89

B6: Antibody No. 833.1 (antibody, human IgG1, kappa)
light: B2 light
heavy: not shown
notes: also called Ab No. 833.1
binding result [15]: binds | binding result [19]: no binding (tested: 50 nM-300 nM)

B7: Antibody No. 833.1 (antibody, human IgG1, kappa)
heavy: not shown
light: B2 light
notes: human IgG1; also called Ab No. 833.1
ELISA Abs 450 nm (RFQ-VISTA-ECD-Fc): 1.56 Abs 450 nm

B8: Antibody No. 457.1 (antibody, human IgG1, kappa)
heavy: not shown
light: EIVLTQSPATLSLSPGERATLSCGASQSVSSNYLAWYQQKPGLAPRLLIYGASSRATGVPDRFSGSGSGTDFTLTISRLEPEDFAVYYCQQYGYSYTFGQGTKLEIKRTVAAPSVFIFPPSDEQLKSGTASVVCLLNNFYPREAKVQWKVDNALQSGNSQESVTEQDSKDSTYSLSSTLTLSKADYEKHKVYACEVTHQGLSSPVTKSFNRGEC
notes: Human IgG1, kappa
EC50 [5]: 0.394 µg/mL | Response [6]: 0.456 | endpoint absorbance (450 nm) [7]: 0.082 | endpoint absorbance (450 nm) [17]: 2.04 | endpoint absorbance (450 nm) [18]: 2

B9: Antibody No. 457.1 (antibody, human IgG1, kappa)
light: B8 light
heavy: not shown
binding result [15]: binds

B10: Antibody No. 457.1 (antibody, human IgG1, kappa)
heavy: not shown
light: B8 light
notes: human IgG1
BLI response of secondary antibody [8]: 0.0285 nm | ELISA Abs 450 nm (RFQ-VISTA-ECD-Fc): 1.6 Abs 450 nm | BLI response of secondary antibody [9]: 0.0173 nm | BLI response of secondary antibody [10]: 0.0481 nm | BLI response of secondary antibody [11]: 0.0675 nm | BLI response of secondary antibody [12]: 0.0481 nm | BLI response of secondary antibody [13]: 0.0427 nm | BLI response of secondary antibody [14]: 0.044 nm
